From US20100048677A1 (NEW YORK BLOOD CENTER, published 2010)

Biological target: αIIb (INTEGRIN, ALPHA 2B; PLATELET GLYCOPROTEIN IIB OF IIB/IIIA COMPLEX, ANTIGEN CD41) (human) (UniProt P08514)
Experiment: αIIb complexes captured, mass spectrometry; No. Expts 1

Sequence of UniProt Q8IYS1 (Q8IYS1 whole entry): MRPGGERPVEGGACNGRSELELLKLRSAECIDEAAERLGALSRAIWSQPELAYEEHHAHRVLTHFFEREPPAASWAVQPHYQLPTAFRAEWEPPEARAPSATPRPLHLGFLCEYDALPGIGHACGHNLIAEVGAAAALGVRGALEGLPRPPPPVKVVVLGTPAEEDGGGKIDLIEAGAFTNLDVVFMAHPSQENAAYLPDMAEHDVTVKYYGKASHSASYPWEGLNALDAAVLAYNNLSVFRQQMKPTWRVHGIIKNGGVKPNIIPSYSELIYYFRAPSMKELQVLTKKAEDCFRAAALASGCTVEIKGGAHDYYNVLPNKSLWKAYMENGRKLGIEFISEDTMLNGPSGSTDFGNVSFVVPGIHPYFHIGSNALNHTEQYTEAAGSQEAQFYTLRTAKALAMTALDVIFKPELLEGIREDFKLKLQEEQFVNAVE
Sequence of HOMER HOMOLOG 3 (DROSOPHILA) (Q9NSC5 whole entry): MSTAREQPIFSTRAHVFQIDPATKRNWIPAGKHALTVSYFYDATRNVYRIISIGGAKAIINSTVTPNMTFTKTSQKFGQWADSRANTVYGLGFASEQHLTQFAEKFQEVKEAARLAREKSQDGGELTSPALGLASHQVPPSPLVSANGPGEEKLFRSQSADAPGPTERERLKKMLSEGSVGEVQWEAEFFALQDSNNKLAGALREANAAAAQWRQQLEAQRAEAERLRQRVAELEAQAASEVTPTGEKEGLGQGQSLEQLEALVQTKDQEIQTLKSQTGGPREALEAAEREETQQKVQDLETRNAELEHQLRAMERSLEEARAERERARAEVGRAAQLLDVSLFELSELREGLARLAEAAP

Row | #Peptides [peptides] | Substance
1 | 6 | SERPINE1 MRNA BINDING PROTEIN 1 (from UniProt Q8NC51 2-408)
2 | 6 | PRE-MRNA CLEAVAGE FACTOR I, 59 kDa SUBUNIT (from UniProt Q8N684 1-471)
3 | 2 | ZINC FINGER PROTEIN 703 (from UniProt Q9H7S9 2-590)
4 | 4 | C5orf25 (FLJ44216 PROTEIN) (from UniProt Q8NDZ2 1-872)
5 | 2 | …-TRNA … 2 (from UniProt Q96I59 15-477)
6 | 5 | ATP CITRATE LYASE (from UniProt P53396 1-1101)
7 | 7 | … (from UniProt P02787 20-698)
8 | 2 | ALPHA-2-MACROGLOBULIN (from UniProt P01023 24-1474)
9 | 3 | …-3-PHOSPHATE DEHYDROGENASE (from UniProt P04406 2-335)
10 | 7 | REGULATION OF NUCLEAR pre-mRNA DOMAIN CONTAINING 1A (from UniProt Q96P16 2-312)
11 | 36 | TUBULIN, BETA 2C (from UniProt P68371 1-445)
12 | 1 | HOMER HOMOLOG 3 (DROSOPHILA) (from UniProt Q9NSC5 1-361)
13 | 4 | 3-HYDROXY-3-METHYLGLUTARYL-COENZYME A SYNTHASE 1 (SOLUBLE) (from UniProt Q01581 1-520)
14 | 5 | TRYPTOPHANYL TRNA … 2 (from UniProt Q9UGM6 19-360)
15 | 8 | ACTININ, ALPHA 3 (from UniProt Q08043 1-901)
16 | 1 | U2(RNU2) SMALL NUCLEAR RNA AUXILIARY FACTOR 1 (from UniProt Q01081 2-240)
17 | 5 | CULLIN 5 (from UniProt Q93034 1-780)
18 | 5 | SIN3A-ASSOCIATED PROTEIN, 130 kDa (from UniProt Q9H0E3 1-1048)

Row | #Peptides [peptides] | Substance
19 | 3 | SEMENOGELIN I (from UniProt P04279 24-462)
20 | 3 | SEC23 HOMOLOG A (S. …) (from UniProt Q15436 2-765)
21 | 25 | DEHYDROGENASE E1 AND TRANSKETOLASE DOMAIN CONTAINING 1 (from UniProt Q96HY7 1-919)
22 | 13 | AMINOACYLASE 1-LIKE 2 (from UniProt Q8IYS1 1-436)
23 | 7 | CHD9 (HYPOTHETICAL PROTEIN BC022889) (from UniProt Q3L8U1 1-2897)
24 | 4 | PEROXIREDOXIN 3 (from UniProt P30048 62-256)
25 | 5 | FOUR AND A HALF LIM DOMAINS 1 (from UniProt Q13642 2-323)
26 | 2 | RAN BINDING PROTEIN 10 (from UniProt Q6VN20 2-620)
27 | 14 | TUBULIN, BETA 4 (from UniProt P04350 1-444)
28 | 3 | ENGULFMENT AND CELL MOTILITY 1 (from UniProt Q92556 1-727)
29 | 4 | HYPOTHETICAL PROTEIN FLJ22184
30 | 13 | UDP-GLUCOSE PYROPHOSPHORYLASE 1 (from UniProt Q16851 1-508)
31 | 2 | CORONIN, ACTIN BINDING PROTEIN, 1A (from UniProt P31146 2-461)
32 | 3 | LUC7L2 (CGI-59 PROTEIN) (from UniProt Q9Y383 1-392)
33 | 15 | HEAT SHOCK 70 kDa PROTEIN 1A (from UniProt P0DMV8 2-641)
34 | 2 | ATP-BINDING CASSETTE, SUB-FAMILY A (ABC1), MEMBER 13 (from UniProt Q86UQ4 1-5058)
35 | 3 | ZINC FINGER PROTEIN 300 (from UniProt Q96RE9 1-604)
36 | 3 | GLUCO… AER61 (from UniProt Q5NDL2 18-527)

More lines, now with the values behind:

Row | Substance | #Peptides [peptides]
37 | GEPHYRIN (from UniProt Q9NQX3 1-736) | 12
38 | PRE-B-CELL COLONY … FACTOR 1 (from UniProt P43490 1-491) | 6
39 | CYCLIN G1 (from UniProt P51959 1-295) | 2
40 | ISOCITRATE DEHYDROGENASE 3 (NAD+) ALPHA (from UniProt P50213 28-366) | 5
41 | CHAPERONIN CONTAINING TCP1, SUBUNIT 7 (ETA) (from UniProt Q99832 1-543) | 11
42 | PROTEIN KINASE, AMP-…, GAMMA 1 NON-… SUBUNIT (from UniProt P54619 1-331) | 12
43 | SPLICING FACTOR 1 (from UniProt Q15637 2-639) | 4
44 | CYCLIN K (from UniProt O75909 1-580) | 1
45 | NUDIX (NUCLEOSIDE DIPHOSPHATE LINKED MOIETY X)-TYPE MOTIF 19 (from UniProt A8MXV4 1-375) | 10
46 | …-TRNA … 2 (from UniProt O95363 1-451) | 13
47 | DEAH (ASP-GLU-ALA-HIS) BOX PO… 38 (from UniProt Q92620 2-1227) | 3
48 | PROTEIN KINASE, AMP-…, BETA 1 NON-… SUBUNIT (from UniProt Q9Y478 2-270) | 9
49 | ATAXIN 2-LIKE (from UniProt Q8WWM7 1-1075) | 8
50 | RB1-INDUCIBLE COILED-COIL 1 (from UniProt Q8TDY2 1-1594) | 6
51 | KERATIN 19 (from UniProt P08727 1-400) | 3
52 | PDZ AND LIM DOMAIN 7 (ENIGMA) (from UniProt Q9NR12 1-457) | 2
53 | KIAA0895 PROTEIN (from UniProt Q8NCT3 1-520) | 3
54 | KERATIN 16 (FOCAL NON-EPIDERMOLYTIC PALMOPLANTAR KERATODERMA) (from UniProt P08779 1-473) | 28
55 | NON-POU DOMAIN CONTAINING, OCTAMER-BINDING (from UniProt Q15233 1-471) | 32
56 | …-… 9 (from UniProt Q86TI2 2-863) | 20
57 | AMINOLEVULINATE, DELTA-, … (from UniProt P13716 1-330) | 8
58 | PROTEIN PHOSPHATASE 1, REGULATORY (INHIBITOR) SUBUNIT 9A (from UniProt Q9ULJ8 1-1098) | 6
59 | HETEROGENEOUS NUCLEAR RIBONUCLEOPROTEIN H1 (from UniProt P31943 1-449) | 9
60 | SEC13-LIKE 1 (S. …) (from UniProt P55735 2-322) | 3
61 | … CYCLASE 6 (from UniProt O43306 1-1168) | 4
62 | CNDP … 2 (METALLO… M20 FAMILY) (from UniProt Q96KP4 2-475) | 6
63 | PROTEIN PHOSPHATASE 1, … SUBUNIT, ALPHA ISOFORM (from UniProt P62136 2-330) | 2
64 | EUKARYOTIC ELONGATION FACTOR-2 KINASE (from UniProt O00418 2-725) | 4
65 | ALDO-KETO REDUCTASE FAMILY 7, MEMBER A2 (AFLATOXIN ALDEHYDE REDUCTASE) (from UniProt O43488 39-359) | 19
66 | MITOGEN-… PROTEIN KINASE KINASE KINASE 7 … PROTEIN 2 (from UniProt Q9NYJ8 1-693) | 2
